{"source": "patent US20250122280A1", "about": "“ANTI-Ly6E ANTIBODIES, IMMUNOCONJUGATES, AND USES THEREOF” (Genentech, Inc., priority 2022, published 2025)", "key": {"[1]": {"molecular_target": "T1, Ly6E on cell lines known to express Ly6E (Kuramochi, NCI-H1781, HCC1569x2) (human, UniProt Q16553 21-101)", "T1 construct": "It is endogenous on human cancer cell lines; also called cell-surface Ly6E", "T1 sequence": "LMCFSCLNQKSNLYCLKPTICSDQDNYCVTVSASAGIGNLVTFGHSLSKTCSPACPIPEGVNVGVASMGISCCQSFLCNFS", "experiment": "flow cytometry on NCI-H1781 cells"}, "[2]": {"molecular_target": "T1, Ly6E on cell lines known to express …", "experiment": "flow cytometry of Fabs on NCI-H1781 cells", "procedure": "(§1) Cell lines were cultured as recommended by the ATCC. Prior to staining adherent lines were released by Accutase treatment, all cells were filtered and equilibrated in BD Stain buffer (BSA). […] Samples were fixed in 1% PFA (PBS) prior to analysis. Samples were assessed on a BD LSRFortessa. Following exclusion of dead cells, singlets were assessed for antibody binding using FlowJo software (FIGS. 2A-2C)."}, "[3]": {"molecular_target": "T1, Ly6E on cell lines known to express …", "experiment": "cell-based or functional assay"}, "[4]": {"molecular_target": "T1, Ly6E on cell lines known to express …", "experiment": "flow cytometry on Kuramochi cells", "procedure": "as §1"}}}
{"binder": "humanized anti-Ly6E (comprising SEQ ID NOs. 3 and 5) (antibody, human IgG1, kappa, V domains shown, also called the humanized version; 3A3.v2.D92E) VH: EVQLVESGGGLVQPGGSLKLSCAASGFTFSTVAMHWVRQASGKGLEWVGRIRTKPVNYETYYADSVKGRFTISRDDSKSTVYLQMNSLKTEDTAVYYCSAPNYYDGTYSFAYWGQGTLVTVSS VL: DIQMTQSPSSLSASVGDRVTITCKASQNVGSNVDWYQQKPGKAPKLLIYKASNRYTGVPSRFSGSGSGTDFTFTISSLQPEDIATYYCMQSETKYTFGQGTKVEIKR", "values": [{"measurement": "EC50 (read off the curve)", "setting": "[1]", "value": "~2", "unit": "µg/mL"}]}
{"binder": "Fab of humanized anti-Ly6E variant LC D92S (Fab, V domains shown, Fab made by proteolysis of the IgG; also called 3A3.v2.D92S) VH: EVQLVESGGGLVQPGGSLKLSCAASGFTFSTVAMHWVRQASGKGLEWVGRIRTKPVNYETYYADSVKGRFTISRDDSKSTVYLQMNSLKTEDTAVYYCSAPNYYDGTYSFAYWGQGTLVTVSS VL: DIQMTQSPSSLSASVGDRVTITCKASQNVGSNVDWYQQKPGKAPKLLIYKASNRYTGVPSRFSGSGSGTDFTFTISSLQPEDIATYYCMQSSTKYTFGQGTKVEIKR", "values": [{"measurement": "EC50 (read off the curve)", "setting": "[2]", "value": "~10", "unit": "nM"}]}
{"binder": "Fab of humanized anti-Ly6E variant LC D92E (Fab, V domains shown, Fab made by proteolysis of the IgG; also called 3A3.v2.D92E) VH: EVQLVESGGGLVQPGGSLKLSCAASGFTFSTVAMHWVRQASGKGLEWVGRIRTKPVNYETYYADSVKGRFTISRDDSKSTVYLQMNSLKTEDTAVYYCSAPNYYDGTYSFAYWGQGTLVTVSS VL: DIQMTQSPSSLSASVGDRVTITCKASQNVGSNVDWYQQKPGKAPKLLIYKASNRYTGVPSRFSGSGSGTDFTFTISSLQPEDIATYYCMQSETKYTFGQGTKVEIKR", "values": [{"measurement": "EC50 (read off the curve)", "setting": "[2]", "value": "~10", "unit": "nM"}]}
{"binder": "chimeric (Ch) Ly6E 3A3 ThioMab drug conjugate with SN36325 (antibody, V domains shown, engineered cysteine carrying the SN36325 (seco-CBI-dimer) linker-drug on heavy and/or light chain; position not stated) VH: AVQLVEFGGGLVQPKESLKISCAASGFTFSTVAMHWVRQAPGKGLEWIARIRTKPVNYETYYADSVKGRFTISRDDSKSMVYLQMDNLKTEDAAMYYCSAPNYYDGTYSFAYWGQGTLVTVSS VL: DIVMTQSPTSISISVGERVTMNCKASQNVGSNVDWYQQKTGQSPELLIYKASNRYTGVPGRFTGSGSGTDFTFTISNLQAEDLAVYYCMQSDTKYTFGAGTKVEIKR", "values": [{"measurement": "potency difference from non-target control, 5 day anti-proliferation assay (CellTiter-Glo), cell line NCl-H1781", "setting": "[3]", "value": "> 400", "unit": "fold"}]}
{"binder": "chimeric anti-Ly6E antibody clone 3A3 (rat-human chimeric antibody) (antibody, human IgG1, kappa, V domains shown, Rat variable domains on human IgG1/kappa constant regions; also called Ch Ly6E 3A3) VH: AVQLVEFGGGLVQPKESLKISCAASGFTFSTVAMHWVRQAPGKGLEWIARIRTKPVNYETYYADSVKGRFTISRDDSKSMVYLQMDNLKTEDAAMYYCSAPNYYDGTYSFAYWGQGTLVTVSS VL: DIVMTQSPTSISISVGERVTMNCKASQNVGSNVDWYQQKTGQSPELLIYKASNRYTGVPGRFTGSGSGTDFTFTISNLQAEDLAVYYCMQSDTKYTFGAGTKVEIKR", "values": [{"measurement": "binding result", "setting": "[4]", "value": "binds"}]}
